{"source": "paper PMC9715718", "about": "(Nature Communications, 2022)", "binders": {"B1": {"name": "RhlR purified in the presence of mBTL (natural protein)", "chain": "MRNDGGFLLWWDGLRSEMQPIHDSQGVFAVLEKEVRRLGFDYYAYGVRHTIPFTRPKTEVHGTYPKAWLERYQMQNYGAVDPAILNGLRSSEMVVWSDSLFDQSRMLWNEARDWGLCVGATLPIRAPNNLLSVLSVARDQQNISSFEREEIRLRLRCMIELLTQKLTDLEHPMLMSNPVCLSHREREILQWTADGKSSGEIAIILSISESTVNFHHKNIQKKFDAPNKTLAAAYAAALGLI", "notes": "RhlR, LuxR-type transcription factor of P. aeruginosa PA14/PAO1, 241 residues; also called RhlR:mBTL; non-tagged RhlR; source: E. coli BL21 CodonPlus (DE3), purified in the presence of mBTL"}, "B2": {"name": "RhlR-ATTO488 (natural protein)", "chain": "B1 chain", "modifications": "conjugated with ATTO488-maleimid (site not stated)", "notes": "RhlR, LuxR-type transcription factor of P. aeruginosa PA14/PAO1, 241 residues; m4 after labelling; 'non-tagged'; holds mBTL"}, "B3": {"name": "PqsE (purified, affinity tag removed) (enzyme)", "chain": "MLRLSAPGQLDDDLCLLGDVQVPVFLLRLGEASWALVEGGISRDAELVWADLCRWVADPSQVHYWLITHKHYDHCGLLPYLCPRLPNVQVLASERTCQAWKSESAVRVVERLNRQLLRAEQRLPEACAWDALPVRAVADGEWLELGPRHRLQVIEAHGHSDDHVVFYDVRRRRLFCGDALGEFDEAEGVWRPLVFDDMEAYLESLERLQRLPTLLQLIPGHGGLLRGRLAADGAESAYTECLRLCRRLLWRQSMGESLDELSEELHRAWGGQSVDFLPGELHLGSMRRMLEILSRQALPLD", "notes": "not shown: His6, N-terminal, cleaved"}}, "key": {"[1]": {"target": "the molecule itself", "experiment": "SEC-MALS; Superdex 200 Increase column in SEC buffer, 40-150 µg of protein applied"}, "[2]": {"target": "T1, PqsE-E187R (Pseudomonas aeruginosa, UniProt P20581, E187R)", "T1 construct": "source: E. coli BL21 CodonPlus (DE3), purified; not shown: His6, N-terminal, cleaved", "experiment": "MST; PqsE diluted 1:1 from 10 µM, RhlR-ATTO488 at 20 nM; 50 mM Tris pH 8.0, 300 mM NaCl, 5% glycerol, 50 µM mBTL, 0.05% Tween; 25 °C", "details": "both partners purified"}}}
{"binder": "B1", "values": [{"measurement": "stoichiometry N", "setting": "[1]", "result": 2}]}
{"binder": "B2", "values": [{"measurement": "Kd", "setting": "[2]", "result": "13.8 ± 3.9", "unit": "µM"}]}
{"binder": "B3", "values": [{"measurement": "stoichiometry N", "setting": "[1]", "result": 2}]}
